Results as given in IntAct's records for PubMed 30659753.

B1: Protein KHNYN (Homo sapiens), O15037 (parent)
chain: MPTWGARPASPDRFAVSAEAENKVREQQPHVERIFSVGVSVLPKDCPDNPHIWLQLEGPKENASRAKEYLKGLCSPELQDEIHYPPKLHCIFLGAQGFFLDCLAWSTSAHLVPRAPGSLMISGLTEAFVMAQSRVEELAERLSWDFTPGPSSGASQCTGVLRDFSALLQSPGDAHREALLQLPLAVQEELLSLVQEASSGQGPGALASWEGRSSALLGAQCQGVRAPPSDGRESLDTGSMGPGDCRGARGDTYAVEKEGGKQGGPREMDWGWKELPGEEAWEREVALRPQSVGGGARESAPLKGKALGKEEIALGGGGFCVHREPPGAHGSCHRAAQSRGASLLQRLHNGNASPPRVPSPPPAPEPPWHCGDRGDCGDRGDVGDRGDKQQGMARGRGPQWKRGARGGNLVTGTQRFKEALQDPFTLCLANVPGQPDLRHIVIDGSNVAMVHGLQHYFSSRGIAIAVQYFWDRGHRDITVFVPQWRFSKDAKVRESHFLQKLYSLSLLSLTPSRVMDGKRISSYDDRFMVKLAEETDGIIVSNDQFRDLAEESEKWMAIIRERLLPFTFVGNLFMVPDDPLGRNGPTLDEFLKKPARTQGSSKAQHPSRGFAEHGKQQQGREEEKGSGGIRKTRETERLRRQLLEVFWGQDHKVDFILQREPYCRDINQLSEALLSLNF

Variants of: B1
Details: with nedd8_human NEDD8, Q15843
Sequence of nedd8_human NEDD8, Q15843 (Q15843 whole entry): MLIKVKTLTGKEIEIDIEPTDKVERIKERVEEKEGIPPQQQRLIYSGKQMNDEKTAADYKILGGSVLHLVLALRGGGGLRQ

Effect of a mutation on the interaction, decreasing interaction:
R664E
K652D
W647P
W647A
H651F
R659E
